Reference: article PMC3943285, “Activity of a Carboxyl-Terminal Truncated Form of Catechol 2,3-Dioxygenase from Planococcus sp. S5” (The Scientific World Journal, 2014)

System: Oc1ccccc1O
Test: cells, lysate or membranes
Conditions: catechol 0-150 µM, 35 °C, 50 mM phosphate pH 7.5 (general assay), O2 co-substrate, crude extract
[1] = C-terminally truncated (stop at 289)

## C23Owt (catechol 2,3-dioxygenase from Planococcus sp. S5) (Planococcus sp. S5; C103R)
[1]
  Km: 66.17 ± 9.44 µM
  Vmax: 0.104 µmol/min/mg

## C23Owt (catechol 2,3-dioxygenase from Planococcus sp. S5) (Planococcus sp. S5)
  Km: 97.74 ± 10.91 µM
  Vmax: 0.115 µmol/min/mg
